Assay results published in patent publication EP4692114A1, “CALCITONIN ANALOGUE, AND DERIVATIVE THEREOF AND USE THEREOF” (Hangzhou Sciwind Biosciences Co., Ltd., priority 2023, dated 2024).
*1 amine or outer side, *2 acyl side, *3 side chain or, on linkers, in order; H or OH if unused. [ ]: non-standard residue; d: D form. The star is where a group is joined. C20 diacid = O=C(O)CCCCCCCCCCCCCCCCCCC(=O)*; C18 diacid = O=C(O)CCCCCCCCCCCCCCCCC(=O)*; γGlu = O=C(O)[C@H](CCC(=O)[*:2])N[*:1]; βAsp = O=C(O)[C@H](CC(=O)[*:2])N[*:1]; AEEA = NCCOCCOCC(=O)O

T1: human amylin receptor (AMY3) on CHO-K1/Gal5/AMY3 cells (human, UniProt P30988 25-474; O60896 24-148)
T1 sequence (looked up) 1: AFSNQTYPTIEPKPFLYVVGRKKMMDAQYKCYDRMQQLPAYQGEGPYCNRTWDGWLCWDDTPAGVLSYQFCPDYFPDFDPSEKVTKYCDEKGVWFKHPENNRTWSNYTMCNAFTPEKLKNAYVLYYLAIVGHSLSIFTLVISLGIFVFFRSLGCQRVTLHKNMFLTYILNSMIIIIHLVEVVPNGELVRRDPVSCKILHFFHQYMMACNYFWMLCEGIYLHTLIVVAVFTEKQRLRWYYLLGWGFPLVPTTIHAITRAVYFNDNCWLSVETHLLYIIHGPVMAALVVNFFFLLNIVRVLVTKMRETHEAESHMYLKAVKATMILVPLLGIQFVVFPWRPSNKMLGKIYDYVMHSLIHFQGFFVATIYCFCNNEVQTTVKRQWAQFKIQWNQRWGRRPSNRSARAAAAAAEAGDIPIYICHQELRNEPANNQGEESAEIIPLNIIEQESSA
T1 sequence (looked up) 2: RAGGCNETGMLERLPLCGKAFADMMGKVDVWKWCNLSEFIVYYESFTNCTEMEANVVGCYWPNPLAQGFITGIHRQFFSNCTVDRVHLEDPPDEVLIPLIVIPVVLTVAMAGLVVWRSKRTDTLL


Target: T1, human amylin receptor (AMY3) on …
Assay: cell-based or functional assay

Binder	EC50/nM, CRE-luciferase in amylin receptor/CRE-luc CHO cells [nM]
{C20 diacid-γGlu}-KSQLSTEVLGRLSQELHRLQDYPRTDVGSGSP-NH2 (SMILES CC(C)C[C@H](NC(=O)[C@H](CCCNC(=N)N)NC(=O)CNC(=O)[C@H](CC(C)C)NC(=O)[C@@H](NC(=O)[C@H](CCC(=O)O)NC(=O)[C@@H](NC(=O)[C@H](CO)NC(=O)[C@H](CC(C)C)NC(=O)[C@H](CCC(N)=O)NC(=O)[C@H](CO)NC(=O)[C@H](CCCCN)NC(=O)CC[C@H](NC(=O)CCCCCCCCCCCCCCCCCCC(=O)O)C(=O)O)[C@@H](C)O)C(C)C)C(=O)N[C@@H](CO)C(=O)N[C@@H](CCC(N)=O)C(=O)N[C@@H](CCC(=O)O)C(=O)N[C@@H](CC(C)C)C(=O)N[C@@H](Cc1c[nH]cn1)C(=O)N[C@@H](CCCNC(=N)N)C(=O)N[C@@H](CC(C)C)C(=O)N[C@@H](CCC(N)=O)C(=O)N[C@@H](CC(=O)O)C(=O)N[C@@H](Cc1ccc(O)cc1)C(=O)N1CCC[C@H]1C(=O)N[C@@H](CCCNC(=N)N)C(=O)N[C@H](C(=O)N[C@@H](CC(=O)O)C(=O)N[C@H](C(=O)NCC(=O)N[C@@H](CO)C(=O)NCC(=O)N[C@@H](CO)C(=O)N1CCC[C@H]1C(N)=O)C(C)C)[C@@H](C)O) [calcitonin derivative M36]	0.032
{C20 diacid-γGlu}-ASQLSTAVLGRLSSELHRLQDYPRTDVGSGSP-NH2 (SMILES CC(C)C[C@H](NC(=O)[C@H](CCCNC(=N)N)NC(=O)CNC(=O)[C@H](CC(C)C)NC(=O)[C@@H](NC(=O)[C@H](C)NC(=O)[C@@H](NC(=O)[C@H](CO)NC(=O)[C@H](CC(C)C)NC(=O)[C@H](CCC(N)=O)NC(=O)[C@H](CO)NC(=O)[C@H](C)NC(=O)CC[C@H](NC(=O)CCCCCCCCCCCCCCCCCCC(=O)O)C(=O)O)[C@@H](C)O)C(C)C)C(=O)N[C@@H](CO)C(=O)N[C@@H](CO)C(=O)N[C@@H](CCC(=O)O)C(=O)N[C@@H](CC(C)C)C(=O)N[C@@H](Cc1c[nH]cn1)C(=O)N[C@@H](CCCNC(=N)N)C(=O)N[C@@H](CC(C)C)C(=O)N[C@@H](CCC(N)=O)C(=O)N[C@@H](CC(=O)O)C(=O)N[C@@H](Cc1ccc(O)cc1)C(=O)N1CCC[C@H]1C(=O)N[C@@H](CCCNC(=N)N)C(=O)N[C@H](C(=O)N[C@@H](CC(=O)O)C(=O)N[C@H](C(=O)NCC(=O)N[C@@H](CO)C(=O)NCC(=O)N[C@@H](CO)C(=O)N1CCC[C@H]1C(N)=O)C(C)C)[C@@H](C)O) [calcitonin derivative M11]	0.017
{C20 diacid-γGlu}-LSQLSTLVLGRLSQELHRLQDYPRTDVGSGSP-NH2 (SMILES CC(C)C[C@H](NC(=O)CC[C@H](NC(=O)CCCCCCCCCCCCCCCCCCC(=O)O)C(=O)O)C(=O)N[C@@H](CO)C(=O)N[C@@H](CCC(N)=O)C(=O)N[C@@H](CC(C)C)C(=O)N[C@@H](CO)C(=O)N[C@H](C(=O)N[C@@H](CC(C)C)C(=O)N[C@H](C(=O)N[C@@H](CC(C)C)C(=O)NCC(=O)N[C@@H](CCCNC(=N)N)C(=O)N[C@@H](CC(C)C)C(=O)N[C@@H](CO)C(=O)N[C@@H](CCC(N)=O)C(=O)N[C@@H](CCC(=O)O)C(=O)N[C@@H](CC(C)C)C(=O)N[C@@H](Cc1c[nH]cn1)C(=O)N[C@@H](CCCNC(=N)N)C(=O)N[C@@H](CC(C)C)C(=O)N[C@@H](CCC(N)=O)C(=O)N[C@@H](CC(=O)O)C(=O)N[C@@H](Cc1ccc(O)cc1)C(=O)N1CCC[C@H]1C(=O)N[C@@H](CCCNC(=N)N)C(=O)N[C@H](C(=O)N[C@@H](CC(=O)O)C(=O)N[C@H](C(=O)NCC(=O)N[C@@H](CO)C(=O)NCC(=O)N[C@@H](CO)C(=O)N1CCC[C@H]1C(N)=O)C(C)C)[C@@H](C)O)C(C)C)[C@@H](C)O) [calcitonin derivative M25]	0.016

The remaining lines, values ahead:

EC50/nM, CRE-luciferase in amylin receptor/CRE-luc CHO cells [nM]	Binder
0.016	{C18 diacid}-EASQLSTAVLGRLSDELHRLQDYPRTDVGSGSP-NH2 (SMILES CC(C)C[C@H](NC(=O)[C@H](CCCNC(=N)N)NC(=O)CNC(=O)[C@H](CC(C)C)NC(=O)[C@@H](NC(=O)[C@H](C)NC(=O)[C@@H](NC(=O)[C@H](CO)NC(=O)[C@H](CC(C)C)NC(=O)[C@H](CCC(N)=O)NC(=O)[C@H](CO)NC(=O)[C@H](C)NC(=O)[C@H](CCC(=O)O)NC(=O)CCCCCCCCCCCCCCCCC(=O)O)[C@@H](C)O)C(C)C)C(=O)N[C@@H](CO)C(=O)N[C@@H](CC(=O)O)C(=O)N[C@@H](CCC(=O)O)C(=O)N[C@@H](CC(C)C)C(=O)N[C@@H](Cc1c[nH]cn1)C(=O)N[C@@H](CCCNC(=N)N)C(=O)N[C@@H](CC(C)C)C(=O)N[C@@H](CCC(N)=O)C(=O)N[C@@H](CC(=O)O)C(=O)N[C@@H](Cc1ccc(O)cc1)C(=O)N1CCC[C@H]1C(=O)N[C@@H](CCCNC(=N)N)C(=O)N[C@H](C(=O)N[C@@H](CC(=O)O)C(=O)N[C@H](C(=O)NCC(=O)N[C@@H](CO)C(=O)NCC(=O)N[C@@H](CO)C(=O)N1CCC[C@H]1C(N)=O)C(C)C)[C@@H](C)O) [calcitonin derivative M42]
0.017	{C20 diacid-βAsp-AEEA-AEEA}-ASQLSTAVLGRLSEELHRLQDYPRTDVGSGSP-NH2 (SMILES CC(C)C[C@H](NC(=O)[C@H](CCCNC(=N)N)NC(=O)CNC(=O)[C@H](CC(C)C)NC(=O)[C@@H](NC(=O)[C@H](C)NC(=O)[C@@H](NC(=O)[C@H](CO)NC(=O)[C@H](CC(C)C)NC(=O)[C@H](CCC(N)=O)NC(=O)[C@H](CO)NC(=O)[C@H](C)NC(=O)COCCOCCNC(=O)COCCOCCNC(=O)C[C@H](NC(=O)CCCCCCCCCCCCCCCCCCC(=O)O)C(=O)O)[C@@H](C)O)C(C)C)C(=O)N[C@@H](CO)C(=O)N[C@@H](CCC(=O)O)C(=O)N[C@@H](CCC(=O)O)C(=O)N[C@@H](CC(C)C)C(=O)N[C@@H](Cc1c[nH]cn1)C(=O)N[C@@H](CCCNC(=N)N)C(=O)N[C@@H](CC(C)C)C(=O)N[C@@H](CCC(N)=O)C(=O)N[C@@H](CC(=O)O)C(=O)N[C@@H](Cc1ccc(O)cc1)C(=O)N1CCC[C@H]1C(=O)N[C@@H](CCCNC(=N)N)C(=O)N[C@H](C(=O)N[C@@H](CC(=O)O)C(=O)N[C@H](C(=O)NCC(=O)N[C@@H](CO)C(=O)NCC(=O)N[C@@H](CO)C(=O)N1CCC[C@H]1C(N)=O)C(C)C)[C@@H](C)O) [calcitonin derivative M59]
0.017	{C20 diacid}-E[AEEA][AEEA]ASQLSTAVLGRLSEELHRLQDYPRTDVGSGSP-NH2 (SMILES CC(C)C[C@H](NC(=O)[C@H](CCCNC(=N)N)NC(=O)CNC(=O)[C@H](CC(C)C)NC(=O)[C@@H](NC(=O)[C@H](C)NC(=O)[C@@H](NC(=O)[C@H](CO)NC(=O)[C@H](CC(C)C)NC(=O)[C@H](CCC(N)=O)NC(=O)[C@H](CO)NC(=O)[C@H](C)NC(=O)COCCOCCNC(=O)COCCOCCNC(=O)[C@H](CCC(=O)O)NC(=O)CCCCCCCCCCCCCCCCCCC(=O)O)[C@@H](C)O)C(C)C)C(=O)N[C@@H](CO)C(=O)N[C@@H](CCC(=O)O)C(=O)N[C@@H](CCC(=O)O)C(=O)N[C@@H](CC(C)C)C(=O)N[C@@H](Cc1c[nH]cn1)C(=O)N[C@@H](CCCNC(=N)N)C(=O)N[C@@H](CC(C)C)C(=O)N[C@@H](CCC(N)=O)C(=O)N[C@@H](CC(=O)O)C(=O)N[C@@H](Cc1ccc(O)cc1)C(=O)N1CCC[C@H]1C(=O)N[C@@H](CCCNC(=N)N)C(=O)N[C@H](C(=O)N[C@@H](CC(=O)O)C(=O)N[C@H](C(=O)NCC(=O)N[C@@H](CO)C(=O)NCC(=O)N[C@@H](CO)C(=O)N1CCC[C@H]1C(N)=O)C(C)C)[C@@H](C)O) [calcitonin derivative M58]
